Molecular target: T1, TRAF2 (UniProt Q12933 1-501, limits assumed)
T1 sequence (looked up): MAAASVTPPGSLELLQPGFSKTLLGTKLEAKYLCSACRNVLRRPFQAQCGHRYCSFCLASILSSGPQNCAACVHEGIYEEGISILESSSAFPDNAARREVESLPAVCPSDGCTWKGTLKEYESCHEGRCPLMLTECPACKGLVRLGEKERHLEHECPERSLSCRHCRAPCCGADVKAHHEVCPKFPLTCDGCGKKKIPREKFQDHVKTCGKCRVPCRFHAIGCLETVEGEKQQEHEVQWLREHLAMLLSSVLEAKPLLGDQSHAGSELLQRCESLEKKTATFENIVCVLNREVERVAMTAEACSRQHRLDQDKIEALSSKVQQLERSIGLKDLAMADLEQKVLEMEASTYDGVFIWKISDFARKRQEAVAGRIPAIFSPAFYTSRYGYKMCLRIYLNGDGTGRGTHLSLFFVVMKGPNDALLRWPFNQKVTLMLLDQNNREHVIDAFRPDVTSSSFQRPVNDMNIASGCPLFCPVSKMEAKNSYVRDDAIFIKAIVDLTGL
Experiment: TRAF2 immunoprecipitation from transfected HEK293 cells, anti-Myc immunoblot (FIG. 9A)
Experimental: To understand how DX2 compromises the apoptotic activity of TNF-a signaling, we evaluated the ability of DX2 to compete with AIMP2 for the interaction with TRAF2 and to affect NF-kB-dependent transcriptional activity. For the co-immunoprecipitation assay, HEK293 cells were transfected with 0, 1 or 2 μg of Myc-tagged DX2 or AIMP2 expression plasmid (FIG. 9A). The expression of endogenous (Endo) and exogenous (Exo) AIMP2 and DX2 was confirmed by immunoblotting of whole cell lysates (WCL) with anti-AIMP2 antibody. TRAF2 was immunoprecipitated with its specific antibody and AIMP2 or DX2 bound to TRAF2 were detected with anti-Myc antibody.

binding result: binds
B1: Myc-tagged DX2 (other)
chain: MPMYQVKPYHGGGAPLRVELPTCMYRLPNVHGRSYGPAPGAGHVQDYGALKDIVINANPASPPLSLLVLHRLLCEHFRVLSTVHTHSSVKSVPENLLKCFGEQNKKQPRQDYQLGFTLIWKNVPKTQMKFSIQTMCPIEGEGNIARFLFSLFGQKHNAVNATLIDSWVDIAIFQLKEGSSKEKAAVFRSMNSALGKSPWLAGNELTVADVVLWSVLQQIGGCSVTVPANVQRWMRSCENLAPFNTALKLLK
notes: also called Myc-DX2; not shown: Myc tag

Source: US20250281573A1 (GENEROATH, published 2025)
